Measurements: the supplement of paper PMC9112550, “Optimization of the antimicrobial peptide Bac7 by deep mutational scanning” (BMC Biology, 2022)

What follows are sequences tested on Escherichia coli TOP10 (assay: shrunken log2 fold change of peptide-encoding DNA abundance (4.5 h post-induction vs induction); higher = less antimicrobial activity (less host growth inhibition)). Details: time post-induction: 4.5 h; library: site-saturation at positions 5, 18, 19, 20.
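Also: peptides expressed intracellularly from a pBAD plasmid library in pooled LB shake-flask culture, induced with 0.3% L-arabinose, DNA abundance read by NGS, three biological replicates, DESeq2 with apeglm shrinkage.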

RRIRPRPPRLPRPRPRPKTSPRP and RRIRVRPPRLPRPRPRPAFCPRP are within 0.2 log units of each other in “shrunken log2 fold change” value: 0.0127 for the first, 0.185 for the second.

RRIRDRPPRLPRPRPRPMCFPRP and RRIRWRPPRLPRPRPRPAKEPRP are within 0.2 log units of each other in “shrunken log2 fold change” value: 0.0878 for the first, -0.01 for the second.

RRIRSRPPRLPRPRPRPKNGPRP and RRIRHRPPRLPRPRPRPLEFPRP are within 0.2 log units of each other in “shrunken log2 fold change” value: -0.105 for the first, 0.0369 for the second.

RRIRMRPPRLPRPRPRPWRCPRP and RRIRVRPPRLPRPRPRPVRYPRP are within 0.2 log units of each other in “shrunken log2 fold change” value: 0.0452 for the first, -0.136 for the second.

RRIRWRPPRLPRPRPRPSRTPRP and RRIRSRPPRLPRPRPRPWQMPRP are within 0.2 log units of each other in “shrunken log2 fold change” value: 0.188 for the first, 0.0651 for the second.

Going from RRIRPRPPRLPRPRPRPWMYPRP to RRIRCRPPRLPRPRPRPQIFPRP, the “shrunken log2 fold change” value rises from -0.691 to 2.2.

Going from RRIRSRPPRLPRPRPRPLVKPRP to RRIRFRPPRLPRPRPRPEDTPRP, the “shrunken log2 fold change” value rises from -0.111 to 0.144.

RRIRSRPPRLPRPRPRPVGLPRP and RRIRSRPPRLPRPRPRPTNCPRP are within 0.2 log units of each other in “shrunken log2 fold change” value: 0.107 for the first, 0.0777 for the second.

Compared with RRIRMRPPRLPRPRPRPFDGPRP, RRIRIRPPRLPRPRPRPLKLPRP is lower in “shrunken log2 fold change” value: 0.136 for the first, -0.838 for the second.

RRIRPRPPRLPRPRPRPWETPRP and RRIRDRPPRLPRPRPRPGYEPRP are within 0.2 log units of each other in “shrunken log2 fold change” value: 0.124 for the first, -0.0119 for the second.

First: RRIRDRPPRLPRPRPRPWSCPRP
Second: RRIRWRPPRLPRPRPRPLRQPRP
The “shrunken log2 fold change” value of the first is lower: -0.188 for the first, 0.539 for the second.

First: RRIRNRPPRLPRPRPRPAQVPRP
Second: RRIRMRPPRLPRPRPRPGTGPRP
The “shrunken log2 fold change” value of the first is lower: 0.157 for the first, 0.596 for the second.

Compared with RRIRERPPRLPRPRPRPKLYPRP, RRIRKRPPRLPRPRPRPMLMPRP is higher in “shrunken log2 fold change” value: -0.432 for the first, 0.322 for the second.

RRIRLRPPRLPRPRPRPGVQPRP and RRIRHRPPRLPRPRPRPQKQPRP are within 0.2 log units of each other in “shrunken log2 fold change” value: 0.0642 for the first, 0.219 for the second.

Compared with RRIRSRPPRLPRPRPRPRTMPRP, RRIRMRPPRLPRPRPRPYDWPRP is lower in “shrunken log2 fold change” value: 0.108 for the first, -0.133 for the second.

RRIRIRPPRLPRPRPRPCSNPRP and RRIRARPPRLPRPRPRPIVKPRP are within 0.2 log units of each other in “shrunken log2 fold change” value: -0.11 for the first, 0.0456 for the second.

First: RRIRKRPPRLPRPRPRPPGGPRP
Second: RRIRWRPPRLPRPRPRPDRTPRP
The “shrunken log2 fold change” value of the first is higher: 0.811 for the first, 0.179 for the second.

RRIRPRPPRLPRPRPRPRHHPRP and RRIRARPPRLPRPRPRPDHHPRP are within 0.2 log units of each other in “shrunken log2 fold change” value: -0.0806 for the first, -0.201 for the second.

Going from RRIRGRPPRLPRPRPRPPEWPRP to RRIRVRPPRLPRPRPRPECFPRP, the “shrunken log2 fold change” value falls from 1.13 to 0.195.

Going from RRIRQRPPRLPRPRPRPEFSPRP to RRIRFRPPRLPRPRPRPNDRPRP, the “shrunken log2 fold change” value falls from 0.362 to -0.108.

RRIRARPPRLPRPRPRPNHVPRP and RRIRIRPPRLPRPRPRPCIIPRP are within 0.2 log units of each other in “shrunken log2 fold change” value: -0.31 for the first, -0.467 for the second.

Compared with RRIRSRPPRLPRPRPRPFTMPRP, RRIRCRPPRLPRPRPRPNYVPRP is higher in “shrunken log2 fold change” value: -0.811 for the first, -0.304 for the second.

First: RRIRYRPPRLPRPRPRPVATPRP
Second: RRIRGRPPRLPRPRPRPREIPRP
The “shrunken log2 fold change” value of the first is lower: -0.281 for the first, 1.1 for the second.

First: RRIRHRPPRLPRPRPRPMENPRP
Second: RRIRMRPPRLPRPRPRPEFRPRP
The “shrunken log2 fold change” value of the first is lower: 0.00439 for the first, 0.275 for the second.

Compared with RRIRERPPRLPRPRPRPNLEPRP, RRIRERPPRLPRPRPRPNRVPRP is higher in “shrunken log2 fold change” value: -0.228 for the first, -0.00226 for the second.

RRIRFRPPRLPRPRPRPHQVPRP and RRIRHRPPRLPRPRPRPCWLPRP are within 0.2 log units of each other in “shrunken log2 fold change” value: -0.088 for the first, -0.0661 for the second.

RRIRIRPPRLPRPRPRPRRGPRP and RRIRARPPRLPRPRPRPAKLPRP are within 0.2 log units of each other in “shrunken log2 fold change” value: 0.184 for the first, 0.196 for the second.

Compared with RRIRTRPPRLPRPRPRPKFWPRP, RRIRFRPPRLPRPRPRPDFKPRP is lower in “shrunken log2 fold change” value: 0.318 for the first, -0.296 for the second.

RRIRYRPPRLPRPRPRPLRMPRP and RRIRRRPPRLPRPRPRPWKDPRP are within 0.2 log units of each other in “shrunken log2 fold change” value: 0.0288 for the first, -0.0442 for the second.

RRIRKRPPRLPRPRPRPQYLPRP and RRIRMRPPRLPRPRPRPPILPRP are within 0.2 log units of each other in “shrunken log2 fold change” value: -0.0967 for the first, 0.0619 for the second.

RRIRRRPPRLPRPRPRPCNWPRP and RRIRTRPPRLPRPRPRPAGAPRP are within 0.2 log units of each other in “shrunken log2 fold change” value: -0.0134 for the first, 0.164 for the second.

Compared with RRIRQRPPRLPRPRPRPPFIPRP, RRIRIRPPRLPRPRPRPMSTPRP is lower in “shrunken log2 fold change” value: -0.0092 for the first, -0.211 for the second.

RRIRLRPPRLPRPRPRPMVIPRP and RRIRRRPPRLPRPRPRPDEIPRP are within 0.2 log units of each other in “shrunken log2 fold change” value: 0.036 for the first, 0.116 for the second.

Compared with RRIRQRPPRLPRPRPRPFYSPRP, RRIRRRPPRLPRPRPRPRSYPRP is higher in “shrunken log2 fold change” value: -0.174 for the first, 0.0753 for the second.

Going from RRIRSRPPRLPRPRPRPFMLPRP to RRIRGRPPRLPRPRPRPAFDPRP, the “shrunken log2 fold change” value rises from -0.411 to 0.763.

RRIRQRPPRLPRPRPRPVDVPRP and RRIRPRPPRLPRPRPRPVLDPRP are within 0.2 log units of each other in “shrunken log2 fold change” value: -0.208 for the first, -0.304 for the second.

Going from RRIRDRPPRLPRPRPRPTGPPRP to RRIRNRPPRLPRPRPRPNFKPRP, the “shrunken log2 fold change” value falls from 0.334 to -0.0826.

RRIRNRPPRLPRPRPRPPVKPRP and RRIRMRPPRLPRPRPRPFYCPRP are within 0.2 log units of each other in “shrunken log2 fold change” value: -0.123 for the first, -0.118 for the second.

RRIRERPPRLPRPRPRPKARPRP and RRIRQRPPRLPRPRPRPRLNPRP are within 0.2 log units of each other in “shrunken log2 fold change” value: -0.276 for the first, -0.111 for the second.

RRIRARPPRLPRPRPRPHETPRP and RRIRKRPPRLPRPRPRPNSMPRP are within 0.2 log units of each other in “shrunken log2 fold change” value: 0.062 for the first, -0.115 for the second.

RRIRARPPRLPRPRPRPQALPRP and RRIRSRPPRLPRPRPRPGGPPRP are within 0.2 log units of each other in “shrunken log2 fold change” value: 0.274 for the first, 0.415 for the second.

RRIRHRPPRLPRPRPRPSAGPRP and RRIRQRPPRLPRPRPRPKCSPRP are within 0.2 log units of each other in “shrunken log2 fold change” value: -0.182 for the first, -0.0276 for the second.

RRIRIRPPRLPRPRPRPQFLPRP and RRIRFRPPRLPRPRPRPQQMPRP are within 0.2 log units of each other in “shrunken log2 fold change” value: -0.186 for the first, -0.0245 for the second.

RRIRSRPPRLPRPRPRPHVHPRP and RRIRQRPPRLPRPRPRPFYVPRP are within 0.2 log units of each other in “shrunken log2 fold change” value: -0.412 for the first, -0.484 for the second.

Going from RRIRFRPPRLPRPRPRPNAEPRP to RRIRKRPPRLPRPRPRPHMIPRP, the “shrunken log2 fold change” value falls from 0.67 to -0.335.

RRIRMRPPRLPRPRPRPFVEPRP and RRIRCRPPRLPRPRPRPHMVPRP are within 0.2 log units of each other in “shrunken log2 fold change” value: -0.0699 for the first, -0.149 for the second.

RRIRERPPRLPRPRPRPHGKPRP and RRIRLRPPRLPRPRPRPYWVPRP are within 0.2 log units of each other in “shrunken log2 fold change” value: -0.0244 for the first, 0.135 for the second.

Compared with RRIRFRPPRLPRPRPRPHRNPRP, RRIRYRPPRLPRPRPRPIWGPRP is higher in “shrunken log2 fold change” value: -0.257 for the first, -0.0267 for the second.

RRIRARPPRLPRPRPRPLRYPRP and RRIRMRPPRLPRPRPRPKNVPRP are within 0.2 log units of each other in “shrunken log2 fold change” value: -0.00438 for the first, -0.16 for the second.

Compared with RRIRKRPPRLPRPRPRPCQEPRP, RRIRGRPPRLPRPRPRPNASPRP is higher in “shrunken log2 fold change” value: -0.0342 for the first, 0.496 for the second.

First: RRIRLRPPRLPRPRPRPWDGPRP
Second: RRIRGRPPRLPRPRPRPEHEPRP
The “shrunken log2 fold change” value of the first is lower: -0.153 for the first, 0.176 for the second.

Compared with RRIRTRPPRLPRPRPRPHSTPRP, RRIRSRPPRLPRPRPRPREDPRP is higher in “shrunken log2 fold change” value: -0.374 for the first, 0.432 for the second.

Going from RRIRHRPPRLPRPRPRPPKQPRP to RRIRFRPPRLPRPRPRPVGDPRP, the “shrunken log2 fold change” value rises from -0.00419 to 0.535.

First: RRIRLRPPRLPRPRPRPGCGPRP
Second: RRIRIRPPRLPRPRPRPAHKPRP
The “shrunken log2 fold change” value of the first is higher: 0.49 for the first, 0.0491 for the second.

In the case of RRIRFRPPRLPRPRPRPPRKPRP, the “shrunken log2 fold change” value is reported as 0.827.
